Measurements: patent publication US20230399408A1 (AB THERAPEUTICS, published 2023)
One block for each molecule: values may come before it.

Tests used:
[1] = target: EGFR mutant C797S on BaF3 cells (UniProt P00533); assay: flow cytometry on EGFR mutant C797S-BaF3 cells, goat anti-human Fc-FITC; fit value of a flat control curve; the drawn table is identical to that of FIG. 23C
[2] = target: EGFR on NCI-H1975 cells (human) (UniProt P00533); assay: flow cytometry on H1975 cells, dilutions 2.04e-4 to 400 nM, goat anti-human Fc-FITC; fit value of a flat control curve, beyond the tested range
[3] = target: cMET on NCI-H1975 cells (human) (UniProt P08581); assay: flow cytometry competition on H1975 cells, streptavidin-PE; blocked ligand biotinylated HGF; fit value of a nearly flat control curve (about 6500 to 6200)
[4] = target: cMET on NCI-H1975 cells (human) (UniProt P08581); assay: flow cytometry competition on H1975.HGF cells, streptavidin-PE; ligand biotinylated HGF; fit value of a nearly flat control curve
[5] = target: EGFR on NCI-H1975 cells (human) (UniProt P00533); assay: flow cytometry on H1975.HGF cells, goat anti-human Fc-FITC; fit value of a flat control curve; the drawn table is identical to that of FIG. 23B
[6] = target: EGFR mutant C797S on BaF3 cells (UniProt P00533); assay: flow cytometry competition on EGFR mutant C797S-BaF3 cells, streptavidin-PE; blocked ligand biotinylated EGF; fit value of a flat control curve
[7] = target: EGFR on NCI-H1975 cells (human) (UniProt P00533); assay: flow cytometry competition on H1975.HGF cells, streptavidin-PE; blocked ligand biotinylated EGF; fit value of a control curve that rises instead of falling
EGFR = EGFR (UniProt P00533); assay: separate experiment, method not restated (BLI in this example), EGFR binding
[8] = target: EGFR on NCI-H1975 cells (human) (UniProt P00533); assay: flow cytometry on H1975 cells, dilutions 2.04e-4 to 400 nM, goat anti-human Fc-FITC; whole-cell binding, the cells also carry cMET
cMET [9] = target: cMET (UniProt P08581); assay: BLI (Probelife)
[10] = target: EGFR mutant C797S on BaF3 cells (UniProt P00533); assay: flow cytometry on EGFR mutant C797S-BaF3 cells, goat anti-human Fc-FITC
cMET [11] = target: cMET (UniProt P08581); assay: separate experiment, method not restated (BLI in this example), cMET binding
[12] = target: c-MET-His tag protein (human) (UniProt P08581); assay: titration ELISA, c-MET-His coated
human cMET = target: T1, human cMET (human, UniProt P08581 25-932); assay: binding ELISA, plate coated with human cMET at 1 ug/mL, clone at 10 ug/mL, biotinylated anti-c-Myc 9E-10 and streptavidin detection
T1 construct: Coated antigen of the cross-reactivity ELISA; also called human antigen; anti-Hu
Procedure: A high binding ELISA plate was coated with 1 μg/mL (diluted in 1×PBS) human or monkey antigens and kept at 4° C. overnight. On the next day, the plate was blocked with a blocking buffer (4% non-fat milk in 1×PBS) for 1 hour at 37° C. After blocking, the plate was washed three times with PBST. The antibody samples to be tested were diluted in PBS and then added to the corresponding wells (10 μg/mL). The plate was incubated at 37° C. at RT for 1 hour. After the incubation, the plate was washed three times with the PBST. Next, a secondary antibody (biotinylated anti-c-Myc antibody 9E-10, diluted at 1:500) was added to the wells and the plate was incubated at 37° C. at RT for 1 hour. The plate was then washed three times with PBST. Afterwards, streptavidin-RP, diluted at 1:1000, was added to each well and then the plate was incubated at 37° C. at RT for 1 hour. After the incubation, the plate was washed four times with PBST. After washing, the plate was developed by adding the Amplex reagent substrate and then the luminescent signal was measured at 530 nm and 590 nm in a SpectraMax plate reader.

c-MET-His tag protein = target: T2, c-MET-His tag protein (human, UniProt P08581 25-932); assay: BLI (Probelife Gator), cMET-His on HIS probe saturated with 1H1-cMET-VHH-Fc, second antibody at 5 ug/ml
T2 construct: also called cMET-HIS tagged; not shown: His tag
Procedure: Briefly, a baseline was established using HIS probes in Quantitation (Q) buffer (a phosphate buffered saline solution with bovine serum albumin to decrease non-specific and background signal). The antigen (cMET-HIS tagged) to the HIS probe was added in 5 μg/ml cMET solution in Q buffer. HIS probes in Q buffer were used to return to the baseline. […] Finally, the secondary antibody was associated through HIS Probes in 5 μg/ml of antibody diluted in Q buffer.

Chain of cMET (P08581 25-932): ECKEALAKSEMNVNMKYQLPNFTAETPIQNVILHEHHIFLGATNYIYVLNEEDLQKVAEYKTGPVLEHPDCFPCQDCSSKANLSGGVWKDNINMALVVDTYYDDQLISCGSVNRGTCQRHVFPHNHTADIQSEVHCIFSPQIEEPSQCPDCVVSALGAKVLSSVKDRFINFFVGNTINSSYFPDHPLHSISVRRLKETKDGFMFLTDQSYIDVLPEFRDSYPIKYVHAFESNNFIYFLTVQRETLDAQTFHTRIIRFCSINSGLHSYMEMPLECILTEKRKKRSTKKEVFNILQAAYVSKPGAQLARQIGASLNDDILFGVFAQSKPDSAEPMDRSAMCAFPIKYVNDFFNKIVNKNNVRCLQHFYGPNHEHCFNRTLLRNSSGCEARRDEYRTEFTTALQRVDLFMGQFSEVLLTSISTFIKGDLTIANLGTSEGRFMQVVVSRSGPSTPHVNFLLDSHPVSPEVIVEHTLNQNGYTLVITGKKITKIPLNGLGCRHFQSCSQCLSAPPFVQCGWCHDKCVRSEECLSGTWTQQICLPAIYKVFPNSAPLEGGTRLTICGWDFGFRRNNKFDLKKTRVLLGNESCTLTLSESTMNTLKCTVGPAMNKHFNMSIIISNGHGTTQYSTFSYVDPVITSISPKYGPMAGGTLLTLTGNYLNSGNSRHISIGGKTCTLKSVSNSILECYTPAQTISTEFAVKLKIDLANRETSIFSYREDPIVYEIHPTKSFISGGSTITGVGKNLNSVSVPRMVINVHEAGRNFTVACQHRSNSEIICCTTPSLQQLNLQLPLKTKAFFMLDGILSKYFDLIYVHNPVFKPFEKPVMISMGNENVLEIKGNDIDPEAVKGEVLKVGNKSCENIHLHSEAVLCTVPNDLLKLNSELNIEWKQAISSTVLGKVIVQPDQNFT
Chain of cMET on NCI-H1975 cells (human) (P08581 25-1390): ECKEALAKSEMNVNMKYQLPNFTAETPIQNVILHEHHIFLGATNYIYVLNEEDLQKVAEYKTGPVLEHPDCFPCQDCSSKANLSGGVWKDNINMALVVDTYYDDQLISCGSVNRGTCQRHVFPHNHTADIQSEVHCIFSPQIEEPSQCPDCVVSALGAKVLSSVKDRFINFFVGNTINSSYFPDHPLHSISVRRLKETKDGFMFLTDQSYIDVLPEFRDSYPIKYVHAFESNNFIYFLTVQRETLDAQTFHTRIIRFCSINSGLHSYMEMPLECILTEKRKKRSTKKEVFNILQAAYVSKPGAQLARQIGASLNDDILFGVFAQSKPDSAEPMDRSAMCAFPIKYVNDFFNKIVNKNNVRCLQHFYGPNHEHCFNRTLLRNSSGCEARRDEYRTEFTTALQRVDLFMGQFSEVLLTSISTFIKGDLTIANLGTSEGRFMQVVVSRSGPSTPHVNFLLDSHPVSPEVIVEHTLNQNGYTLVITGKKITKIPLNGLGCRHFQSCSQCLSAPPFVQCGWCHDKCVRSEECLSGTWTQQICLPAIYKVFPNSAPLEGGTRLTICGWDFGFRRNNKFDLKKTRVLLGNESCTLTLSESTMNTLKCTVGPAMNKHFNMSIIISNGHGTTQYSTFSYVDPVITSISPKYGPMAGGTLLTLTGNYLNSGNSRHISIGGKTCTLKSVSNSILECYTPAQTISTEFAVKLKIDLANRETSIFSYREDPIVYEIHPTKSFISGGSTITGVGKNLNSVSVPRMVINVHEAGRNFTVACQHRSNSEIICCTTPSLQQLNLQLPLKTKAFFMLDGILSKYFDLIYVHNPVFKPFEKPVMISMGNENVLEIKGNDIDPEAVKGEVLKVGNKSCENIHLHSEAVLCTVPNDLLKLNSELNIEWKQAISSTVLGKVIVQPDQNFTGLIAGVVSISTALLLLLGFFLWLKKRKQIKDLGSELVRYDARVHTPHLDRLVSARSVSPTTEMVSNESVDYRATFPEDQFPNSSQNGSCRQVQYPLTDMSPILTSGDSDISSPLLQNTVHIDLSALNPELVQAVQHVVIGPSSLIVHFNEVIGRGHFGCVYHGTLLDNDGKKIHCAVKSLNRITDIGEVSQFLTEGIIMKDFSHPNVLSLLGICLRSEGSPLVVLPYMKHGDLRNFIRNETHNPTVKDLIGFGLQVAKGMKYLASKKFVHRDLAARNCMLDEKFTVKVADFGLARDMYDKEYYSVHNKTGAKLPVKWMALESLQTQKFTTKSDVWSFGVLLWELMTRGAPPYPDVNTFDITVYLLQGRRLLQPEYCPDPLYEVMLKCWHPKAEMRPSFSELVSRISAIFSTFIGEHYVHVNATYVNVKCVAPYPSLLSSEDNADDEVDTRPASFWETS
T2 sequence (P08581 25-932 limits assumed): as the sequence (P08581 25-932) above
T1 sequence (P08581 25-932): as above
Chain of c-MET-His tag protein (human) (P08581 25-932 limits assumed): as the sequence (P08581 25-932) above

Molecule: JNJ372 analog (bispecific antibody)
- Kd (EGFR): 0.689 nM
- EC50 [8]: 0.46 nM
- Kd (cMET [9]): 0.405 nM
- EC50 (read off the curve) [10]: 3 nM
- Kd (cMET [11]): 0.432 nM
- EC50 [12]: 4.89 ng/mL

B2: cMET-1A12 VHH-Fc (Fc fusion)
chain: QVQLVESGGGLVQPGGSLRLSCAASGFTFNSYWMYWVRLAPGKGIEWVSATDTRGQNTYYTDSVKGRFTISRDNAKNMVSLQMNNLKSEDTAVYYCALGNRWGTFPNRGPGTLVTVSS
notes: not shown: hinge and Fc of the VHH-Fc
- binding result (c-MET-His tag protein): binds

More lines, now with the values ahead:

- EC50 [1]: 0.0262 nM
- EC50 [2]: 11.1 µM
- EC50 [3]: 0.112 nM
- EC50 [4]: 1.08 nM
- EC50 [5]: 26.4 nM
- EC50 [6]: 0.0262 nM
- EC50 [7]: 26.4 nM
Molecule: Neg.control (antibody)

- binding result (human cMET): binds
B1: 1A12 (VHH)
VHH: B2 chain
notes: it is not the VHH-Fc fusion m11; also called cMET-1A12; clone 1A12
